How the values were obtained:
[1] = target: H3 115–135 peptide; experiment: NMR titration; 1H-15N HSQC of 15N-labelled sNASP (41–330, Δ101–159) titrated with H3 115–135 peptide in PBS; 298 K; assignments in 20 mM NaPO4 pH 7.0, 100 mM NaCl, 5 mM β-mercaptoethanol; conditions: both partners purified
[2] = target: MBP H3 116–135 (human); experiment: SEC; analytical gel filtration, Superdex S200 10/300 GL, 20 mM Hepes-KOH pH 7.5, 200 mM sodium chloride; fractions on SDS-PAGE, Coomassie; conditions: both partners purified

H3 115–135 peptide, sequence (peptide, as listed by the source): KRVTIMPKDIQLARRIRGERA

B1: sNASP (41–330, Δ101–159) (domain or fragment)
chain: SEAKKLLGLGQKHLVMGDIPAAVNAFQEAASLLGKKYGETANECGEAFFFYGKSLLELARLENKSLQENEEEEIGNLELAWDMLDLAKIIFKRQETKEAQLYAAQAHLKLGEVSVESENYVQAVEEFQSCLNLQEQYLEAHDRLLAETHYQLGLAYGYNSQYDEAVAQFSKSIEVIENRMAVLNEQVKEAEGSSAEYKKEIEELKELLPEIREKIEDAKESQRSGNVAELA
modifications: 15N (and 13C, 2H) isotope labelled
- binding result [1]: binds

B2: Sim3 (as used in gel filtration) (natural protein, Schizosaccharomyces pombe, UniProt Q9USQ4 1-396, looked up)
chain: MSSDTKTLENSKGNSATDADTKNPSSSDSRAIEQLVTQGNMAYAQKNYEEAVDKYGQALMQSESIHGSESLENRNVLWLYGKSLFQIAIENSQVLGNALGAKESVSQATESFEEPEAIGSFTFSGQKIENKYTVNEENSSIAHPEKESEEKETNEASPASEEDEDDFNVAWEVLDLTRVMQSKAVDAYPDSKDEKIRLADIYDLLGELSLEIENFSQASQDLKTALEWKEKVYNVSNNTLLSEAHYKLALALEFTNPEDPSNKSRACEHVEKAAEILKNVLNERENEVTDKKGKGKQKAEESTLTSDLENLREMLSELEQKTLDLKHGAPSLEEAVMSKMHESSLLSKDSSSLAQAVAEAVKNANDLGGLVKRKRTKQEVTSSSQKEGPKDKKKKD
notes: source: bacteria, purified
- binding result [2]: binds
